The source of these data is paper PMC8294390 (2021).

The experiment has as its target T1, TNFR1 (Homo sapiens, UniProt P19438).
T1 chain: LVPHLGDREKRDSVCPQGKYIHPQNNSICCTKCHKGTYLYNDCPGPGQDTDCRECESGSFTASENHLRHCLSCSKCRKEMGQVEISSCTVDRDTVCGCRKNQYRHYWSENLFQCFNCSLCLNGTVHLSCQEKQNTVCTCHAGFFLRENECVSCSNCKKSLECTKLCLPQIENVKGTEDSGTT
The experiment can be described thus: SPR. On the technique in general: Surface plasmon resonance follows binding to a sensor surface in real time, without labels.

B1: Atrosimab (antibody)
chain 1: HVQLVQSGAEVKKPGSSVKVSCKASGYTFTDFYINWVRQAPGQGLEWIGEIVPSQGEAKYNDKFKARVTITADKSTSTAYMELSSLRSEDTAVYYCARWDFLDYWGQGTTVTVSSGTGGGSGPSVFLFPPKPKDTLMISRTPEVTCVVVDVSHEDPEVKFNWYVDGVEVHNAKTKPREEQYNSTYRVVSVLTVLHQDWLNGKEYKCKVSNKGLPSSIEKTISKAKGQPREPSVFIFPPSDEQLKSGTASVVCLVNNFYPRDIAVEWEVDNALQSGNSQESVTEQDSKDSTYSLSSTLTLSKADYEKHKVYSCSVMHEALHNHYTQKSFNRGEC
chain 2: DVQMTQSPSSLSASVGDRVTITCRSSQSLLHSNGNTYLHWYQQKPGKAPKLLIYTVSNRFSGVPSRFSGSGSGTDFTLTISSLQPEDFATYYCSQSTHVPYTFGGGTKVEIKGTGGGSGPSVFLFPPKPKDTLMISRTPEVTCVVVDVSHEDPEVKFNWYVDGVEVHNAKTKPREEQYNSTYRVVSVLTVLHQDWLNGKEYKCKVSNKGLPSSIEKTISKAKGQPREPSVFPLAPSSKSTSGGTAALGCLVKDYFPSDIAVEWESGALTSGVHTFPAVLQSSGLYSLSSVVTVPSSSLGTQTYSCSVMHEALHNHYTQKSVEPKSC
The Kd is a measure of binding affinity in units of concentration. A high value points to lower affinity. B1 returned a Kd of 5.01 nM.
